According to PMC3769929:

Target: hAgo1 (Homo sapiens, UniProt Q9UL18 1-857)
Assay: X-ray crystallography

Binder: UGAGGUAGUAGGUUGUAUAGUU (ssRNA, 5' phosphate) [let-7 22mer guide]
- binding result: binds
